Reference: US20140325692, “BLUE-LIGHT INDUCIBLE SYSTEM FOR GENE EXPRESSION” (BOARD OF REGENTS, THE UNIVERSITY OF TEXAS SYSTEM, published 2014)

B1: Clone-53 (dsDNA)
DNA 1: CATGGCCTAAGGACTGTAAGTACTATTAAATAC
DNA 2: GTATTTAATAGTACTTACAGTCCTTAGGCCATG
B2: Clone-2 (dsDNA)
DNA 1: AGCTAGGCTTTTGGTCTGTATAGCTGTCTTATA
DNA 2: TATAAGACAGCTATACAGACCAAAAGCCTAGCT
B3: Clone-77 (dsDNA)
DNA 1: CAGATACATGCTTTAGTACGTATATTCGATGTC
DNA 2: GACATCGAATATACGTACTAAAGCATGTATCTG
B4: C1-2 (dsDNA)
DNA 1: TAGGTAGCCTTTAGTCCATG
DNA 2: CATGGACTAAAGGCTACCTA
B5: Clone-78 (dsDNA)
DNA 1: GCCCTAAGACTGTATCTTATTCGTGAGTTTTAA
DNA 2: TTAAAACTCACGAATAAGATACAGTCTTAGGGC
B6: Clone-22 (dsDNA)
DNA 1: TATAGGGCTTTAGTCTGTATGTGGGATGTGTGT
DNA 2: ACACACATCCCACATACAGACTAAAGCCCTATA
B7: Clone-3 (dsDNA)
DNA 1: TAGACTTAAGTCTAGTACACAAGTTTTCCAGGG
DNA 2: CCCTGGAAAACTTGTGTACTAGACTTAAGTCTA
B8: Clone-1 (dsDNA)
DNA 1: TCTACGTTATAGGTAGCCTTTAGTCCATGCTGATTCGTTTTCAAC
DNA 2: GTTGAAAACGAATCAGCATGGACTAAAGGCTACCTATAACGTAGA

What was measured:
Conditions in all cases: tags: His6-Gβ1 (pHis6-Gβ1-Parallel1); label: 5'-32P
EL222 (14-222) wild type [1] = target: T1, EL222 (14-222) wild type (Erythrobacter litoralis, UniProt Q2NB98 SEQ:1-209); experiment: EMSA; light, 4 C, 3 mM MgCl2; 33 bp randomized region printed
T1 chain: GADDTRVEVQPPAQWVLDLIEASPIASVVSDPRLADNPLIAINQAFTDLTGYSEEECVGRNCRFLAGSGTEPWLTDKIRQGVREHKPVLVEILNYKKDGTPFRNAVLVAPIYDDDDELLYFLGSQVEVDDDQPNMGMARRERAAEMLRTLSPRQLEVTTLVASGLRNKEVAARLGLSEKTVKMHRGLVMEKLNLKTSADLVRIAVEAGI
Protocol: (§1) DNA pools derived from each SELEX cycle were PCR amplified as described previously in the SELEX procedure. Complementary oligonucleotides for each individual SELEX-derived clone sequence were chemically synthesized (Sigma), heated to 95-100° C. for 5 min and left to cool to room temperature to anneal the oligonucleotides. DNAs were 5′-end labeled in a 50 μl reaction containing (final concentrations) 68 nM DNA substrate, 70 mM Tris-Cl pH 7.6, 10 mM MgCl₂, 5 mM DTT, 0.6 μCi ATP [γ-³²P] (Perkin Elmer, cat. no. BLU502Z500UC), and 0.2 U PNK (New England Biolabs Inc.). The reaction was incubated for 30 min at 37° C., followed by a 20 min incubation at 65° C. to heat inactivate the enzyme. The ³²P-labeled DNA was purified from the unincorporated ATP [γ-³²P] using Illustra ProbeQuant G-50 micro-columns (GE Healthcare). Approximately 13.6 nM radiolabeled DNA was incubated with varying concentrations of WT-EL222 in the same binding buffer used for SELEX procedure for 25 min at 4° C. with continuous illumination with a white LED light. Reactions were analyzed on a 5% native gel (Acrylamide/Bis 29:1) and run in TBE buffer at 150 V for 1.5 hr at 4° C. The gel was exposed to a PhosphorImaging plate and visualized using FujiFilm FLA-5100 imaging system.

EL222 (14-222) wild type [2] = target: T1, EL222 (14-222) wild type; experiment: EMSA; light, 4 C, 3 mM MgCl2
Protocol: as §1

EL222 (14-222) wild type [3] = target: T1, EL222 (14-222) wild type; experiment: EMSA; white LED light, 4 C, 10 mM Tris pH 8.0, 80 mM NaCl, 3 mM MgCl2
Protocol: as §1

Binder	binding result (EL222 (14-222) wild type [1])	also measured
B1	binds	–
B2	binds	–
B3	binds	–
B4	–	binding result (EL222 (14-222) wild type [2]): binds
B5	binds	–
B6	binds	–
B7	binds	–
B8	–	binding result (EL222 (14-222) wild type [3]): binds
